The Human Domainome abundance scans (Beltran et al. 2025)
± gives the uncertainty stated by the source.

B1: Mineralocorticoid receptor, residues 600 to 675; numbered along this chain, P08235 (parent)
chain: SKICLVCGDEASGCHYGVVTCGSCKVFFKRAVEGQHNYLCAGRNDCIIDKIRRKNCPACRLQKCLQAGMNLGARKS

Variants of: B1
Test: abundance fitness (aPCA) (normalised: wild type 0, dead -1); higher = more abundant; growth selection in yeast, the domain comes from the species named
Details: Homo sapiens

Variant	abundance fitness
SKICLVCGDEASGCHYGVVTCGSCKVFFKRLVEGQHNYLCAGRNDCIIDKIRRKNCPACRLQKCLQAGMNLGARKS [A31L]	-0.553 ± 0.38
SKICLVCGDEASGCHYGVVTCGSCKVFFKRVVEGQHNYLCAGRNDCIIDKIRRKNCPACRLQKCLQAGMNLGARKS [A31V]	0.194 ± 0.31
SKICLVCGDEASGCHYGVVTCGSCKVFFKREVEGQHNYLCAGRNDCIIDKIRRKNCPACRLQKCLQAGMNLGARKS [A31E]	-0.022 ± 0.23
SKICLVCGDEASGCHYGVVTCGSCKVFFKRSVEGQHNYLCAGRNDCIIDKIRRKNCPACRLQKCLQAGMNLGARKS [A31S]	-0.022 ± 0.38
SKICLVCGDEASGCHYGVVTCGSCKVFFKRHVEGQHNYLCAGRNDCIIDKIRRKNCPACRLQKCLQAGMNLGARKS [A31H]	-0.616 ± 0.35
SKICLVCGDEASGCHYGVVTCGSCKVFFKRGVEGQHNYLCAGRNDCIIDKIRRKNCPACRLQKCLQAGMNLGARKS [A31G]	0.001 ± 0.16
SKICLVCGDEASGCHYGVVTCGSCKVFFKRMVEGQHNYLCAGRNDCIIDKIRRKNCPACRLQKCLQAGMNLGARKS [A31M]	0.474 ± 0.49
SKICLVCGDEASGCHYGVVTCGSCKVFFKRFVEGQHNYLCAGRNDCIIDKIRRKNCPACRLQKCLQAGMNLGARKS [A31F]	-0.104 ± 0.22
SKICLVCGDEASGCHYGVVTCGSCKVFFKRAVMGQHNYLCAGRNDCIIDKIRRKNCPACRLQKCLQAGMNLGARKS [E33M]	-0.049 ± 0.076
SKICLVCGDEASGCHYGVVTCGSCKVFFKRAVYGQHNYLCAGRNDCIIDKIRRKNCPACRLQKCLQAGMNLGARKS [E33Y]	-0.088 ± 0.061
SKICLVCGDEASGCHYGVVTCGSCKVFFKRAVVGQHNYLCAGRNDCIIDKIRRKNCPACRLQKCLQAGMNLGARKS [E33V]	-0.01 ± 0.04
SKICLVCGDEASGCHYGVVTCGSCKVFFKRAVWGQHNYLCAGRNDCIIDKIRRKNCPACRLQKCLQAGMNLGARKS [E33W]	-0.099 ± 0.08
SKICLVCGDEASGCHYGVVTCGSCKVFFKRAVAGQHNYLCAGRNDCIIDKIRRKNCPACRLQKCLQAGMNLGARKS [E33A]	-0.28 ± 0.05
SKICLVCGDEASGCHYGVVTCGSCKVFFKRAVKGQHNYLCAGRNDCIIDKIRRKNCPACRLQKCLQAGMNLGARKS [E33K]	0.044 ± 0.086
SKICLVCGDEASGCHYGVVTCGSCKVFFKRAVNGQHNYLCAGRNDCIIDKIRRKNCPACRLQKCLQAGMNLGARKS [E33N]	-0.089 ± 0.057
SKICLVCGDEASGCHYGVVTCGSCKVFFKRAVQGQHNYLCAGRNDCIIDKIRRKNCPACRLQKCLQAGMNLGARKS [E33Q]	-0.039 ± 0.068
SKICLVCGDEASGCHYGVVTCGSCKVFFKRAVPGQHNYLCAGRNDCIIDKIRRKNCPACRLQKCLQAGMNLGARKS [E33P]	-0.128 ± 0.048
SKICLVCGDEASGCHYGVVTCGSCKVFFKRAVIGQHNYLCAGRNDCIIDKIRRKNCPACRLQKCLQAGMNLGARKS [E33I]	-0.124 ± 0.047
SKICLVCGDEASGCHYGVVTCGSCKVFFKRAVSGQHNYLCAGRNDCIIDKIRRKNCPACRLQKCLQAGMNLGARKS [E33S]	0.008 ± 0.041
SKICLVCGDEASGCHYGVVTCGSCKVFFKRAVDGQHNYLCAGRNDCIIDKIRRKNCPACRLQKCLQAGMNLGARKS [E33D]	-0.043 ± 0.052
SKICLVCGDEASGCHYGVVTCGSCKVFFKRAVLGQHNYLCAGRNDCIIDKIRRKNCPACRLQKCLQAGMNLGARKS [E33L]	-0.109 ± 0.041
SKICLVCGDEASGCHYGVVTCGSCKVFFKRAVFGQHNYLCAGRNDCIIDKIRRKNCPACRLQKCLQAGMNLGARKS [E33F]	-0.137 ± 0.057
SKICLVCGDEASGCHYGVVTCGSCKVFFKRAVHGQHNYLCAGRNDCIIDKIRRKNCPACRLQKCLQAGMNLGARKS [E33H]	-0.077 ± 0.051
SKICLVCGDEASGCHYGVVTCGSCKVFFKRAVCGQHNYLCAGRNDCIIDKIRRKNCPACRLQKCLQAGMNLGARKS [E33C]	-0.107 ± 0.055

Variant	abundance fitness
SKICLVCGDEASGCHYGVVTCGSCKVFFKRAVGGQHNYLCAGRNDCIIDKIRRKNCPACRLQKCLQAGMNLGARKS [E33G]	0.062 ± 0.044
SKICLVCGDEASGCHYGVVTCGSCKVFFKRAVTGQHNYLCAGRNDCIIDKIRRKNCPACRLQKCLQAGMNLGARKS [E33T]	-0.051 ± 0.045
SKICLVCGDEASGCHYGVVTCGSCKVFFKHAVEGQHNYLCAGRNDCIIDKIRRKNCPACRLQKCLQAGMNLGARKS [R30H]	0.043 ± 0.21
SKICLVCGDEASGCHYGVVTCGSCKVFFKYAVEGQHNYLCAGRNDCIIDKIRRKNCPACRLQKCLQAGMNLGARKS [R30Y]	-0.121 ± 0.32
SKICLVCGDEASGCHYGVVTCGSCKVFFKPAVEGQHNYLCAGRNDCIIDKIRRKNCPACRLQKCLQAGMNLGARKS [R30P]	0.293 ± 0.45
SKICLVCGDEASGCHYGVVTCGSCKVFFKWAVEGQHNYLCAGRNDCIIDKIRRKNCPACRLQKCLQAGMNLGARKS [R30W]	-0.29 ± 0.5
SKICLVCGDEASGCHYGVVTCGSCKVFFKRAVEGMHNYLCAGRNDCIIDKIRRKNCPACRLQKCLQAGMNLGARKS [Q35M]	-0.121 ± 0.056
SKICLVCGDEASGCHYGVVTCGSCKVFFKRAVEGDHNYLCAGRNDCIIDKIRRKNCPACRLQKCLQAGMNLGARKS [Q35D]	0.056 ± 0.057
SKICLVCGDEASGCHYGVVTCGSCKVFFKRAVEGEHNYLCAGRNDCIIDKIRRKNCPACRLQKCLQAGMNLGARKS [Q35E]	0.069 ± 0.058
SKICLVCGDEASGCHYGVVTCGSCKVFFKRAVEGFHNYLCAGRNDCIIDKIRRKNCPACRLQKCLQAGMNLGARKS [Q35F]	-0.129 ± 0.055
SKICLVCGDEASGCHYGVVTCGSCKVFFKRAVEGAHNYLCAGRNDCIIDKIRRKNCPACRLQKCLQAGMNLGARKS [Q35A]	-0.058 ± 0.044
SKICLVCGDEASGCHYGVVTCGSCKVFFKRAVEGCHNYLCAGRNDCIIDKIRRKNCPACRLQKCLQAGMNLGARKS [Q35C]	-0.073 ± 0.05
SKICLVCGDEASGCHYGVVTCGSCKVFFKRAVEGLHNYLCAGRNDCIIDKIRRKNCPACRLQKCLQAGMNLGARKS [Q35L]	-0.094 ± 0.038
SKICLVCGDEASGCHYGVVTCGSCKVFFKRAVEGIHNYLCAGRNDCIIDKIRRKNCPACRLQKCLQAGMNLGARKS [Q35I]	-0.015 ± 0.056
SKICLVCGDEASGCHYGVVTCGSCKVFFKRAVEGKHNYLCAGRNDCIIDKIRRKNCPACRLQKCLQAGMNLGARKS [Q35K]	0.011 ± 0.06
SKICLVCGDEASGCHYGVVTCGSCKVFFKRAVEGGHNYLCAGRNDCIIDKIRRKNCPACRLQKCLQAGMNLGARKS [Q35G]	-0.023 ± 0.042
SKICLVCGDEASGCHYGVVTCGSCKVFFKRAVEGHHNYLCAGRNDCIIDKIRRKNCPACRLQKCLQAGMNLGARKS [Q35H]	-0.022 ± 0.051
SKICLVCGDEASGCHYGVVTCGSCKVFFKRAEEGQHNYLCAGRNDCIIDKIRRKNCPACRLQKCLQAGMNLGARKS [V32E]	-0.004 ± 0.22
SKICLVCGDEASGCHYGVVTCGSCKVFFKRANEGQHNYLCAGRNDCIIDKIRRKNCPACRLQKCLQAGMNLGARKS [V32N]	-0.08 ± 0.13
SKICLVCGDEASGCHYGVVTCGSCKVFFKRAGEGQHNYLCAGRNDCIIDKIRRKNCPACRLQKCLQAGMNLGARKS [V32G]	-0.228 ± 0.19
SKICLVCGDEASGCHYGVVTCGSCKVFFKRAFEGQHNYLCAGRNDCIIDKIRRKNCPACRLQKCLQAGMNLGARKS [V32F]	-0.013 ± 0.077
SKICLVCGDEASGCHYGVVTCGSCKVFFKRAIEGQHNYLCAGRNDCIIDKIRRKNCPACRLQKCLQAGMNLGARKS [V32I]	0.019 ± 0.1
SKICLVCGDEASGCHYGVVTCGSCKVFFKRAKEGQHNYLCAGRNDCIIDKIRRKNCPACRLQKCLQAGMNLGARKS [V32K]	-0.004 ± 0.18
SKICLVCGDEASGCHYGVVTCGSCKVFFKRAQEGQHNYLCAGRNDCIIDKIRRKNCPACRLQKCLQAGMNLGARKS [V32Q]	-0.017 ± 0.12

Variant	abundance fitness
SKICLVCGDEASGCHYGVVTCGSCKVFFKRAMEGQHNYLCAGRNDCIIDKIRRKNCPACRLQKCLQAGMNLGARKS [V32M]	0.114 ± 0.15
SKICLVCGDEASGCHYGVVTCGSCKVFFKRAREGQHNYLCAGRNDCIIDKIRRKNCPACRLQKCLQAGMNLGARKS [V32R]	-0.095 ± 0.082
SKICLVCGDEASGCHYGVVTCGSCKVFFKRAPEGQHNYLCAGRNDCIIDKIRRKNCPACRLQKCLQAGMNLGARKS [V32P]	-0.682 ± 0.25
SKICLVCGDEASGCHYGVVTCGSCKVFFKRAWEGQHNYLCAGRNDCIIDKIRRKNCPACRLQKCLQAGMNLGARKS [V32W]	-0.24 ± 0.14
SKICLVCGDEASGCHYGVVTCGSCKVFFKRAHEGQHNYLCAGRNDCIIDKIRRKNCPACRLQKCLQAGMNLGARKS [V32H]	-0.158 ± 0.14
SKICLVCGDEASGCHYGVVTCGSCKVFFKRAAEGQHNYLCAGRNDCIIDKIRRKNCPACRLQKCLQAGMNLGARKS [V32A]	0.023 ± 0.1
SKICLVCGDEASGCHYGVVTCGSCKVFFKRADEGQHNYLCAGRNDCIIDKIRRKNCPACRLQKCLQAGMNLGARKS [V32D]	-0.035 ± 0.2
SKICLVCGDEASGCHYGVVTCGSCKVFFKRAYEGQHNYLCAGRNDCIIDKIRRKNCPACRLQKCLQAGMNLGARKS [V32Y]	-0.1 ± 0.1
SKICLVCGDEASGCHYGVVTCGSCKVFFKRAVEMQHNYLCAGRNDCIIDKIRRKNCPACRLQKCLQAGMNLGARKS [G34M]	-0.098 ± 0.092
SKICLVCGDEASGCHYGVVTCGSCKVFFKRAVEVQHNYLCAGRNDCIIDKIRRKNCPACRLQKCLQAGMNLGARKS [G34V]	-0.102 ± 0.049
SKICLVCGDEASGCHYGVVTCGSCKVFFKRAVESQHNYLCAGRNDCIIDKIRRKNCPACRLQKCLQAGMNLGARKS [G34S]	-0.074 ± 0.048
SKICLVCGDEASGCHYGVVTCGSCKVFFKRAVEHQHNYLCAGRNDCIIDKIRRKNCPACRLQKCLQAGMNLGARKS [G34H]	-0.078 ± 0.069
SKICLVCGDEASGCHYGVVTCGSCKVFFKRAVERQHNYLCAGRNDCIIDKIRRKNCPACRLQKCLQAGMNLGARKS [G34R]	0.032 ± 0.054
SKICLVCGDEASGCHYGVVTCGSCKVFFKRAVELQHNYLCAGRNDCIIDKIRRKNCPACRLQKCLQAGMNLGARKS [G34L]	-0.131 ± 0.06
SKICLVCGDEASGCHYGVVTCGSCKVFFKRAVENQHNYLCAGRNDCIIDKIRRKNCPACRLQKCLQAGMNLGARKS [G34N]	0.042 ± 0.08
SKICLVCGDEASGCHYGVVTCGSCKVFFKRAVEWQHNYLCAGRNDCIIDKIRRKNCPACRLQKCLQAGMNLGARKS [G34W]	-0.165 ± 0.092
SKICLVCGDEASGCHYGVVTCGSCKVFFKRAVECQHNYLCAGRNDCIIDKIRRKNCPACRLQKCLQAGMNLGARKS [G34C]	-0.151 ± 0.099
SKICLVCGDEASGCHYGVVTCGSCKVFFKRAVEIQHNYLCAGRNDCIIDKIRRKNCPACRLQKCLQAGMNLGARKS [G34I]	-0.103 ± 0.087
SKICLVCGDEASGCHYGVVTCGSCKVFFKRAVEQQHNYLCAGRNDCIIDKIRRKNCPACRLQKCLQAGMNLGARKS [G34Q]	-0.043 ± 0.099
SKICLVCGDEASGCHYGVVTCGSCKVFFKRAVEAQHNYLCAGRNDCIIDKIRRKNCPACRLQKCLQAGMNLGARKS [G34A]	-0.099 ± 0.06
SKICLVCGDEASGCHYGVVTCGSCKVFFKRAVETQHNYLCAGRNDCIIDKIRRKNCPACRLQKCLQAGMNLGARKS [G34T]	-0.064 ± 0.056
SKICLVCGDEASGCHYGVVTCGSCKVFFKRAVEKQHNYLCAGRNDCIIDKIRRKNCPACRLQKCLQAGMNLGARKS [G34K]	-0.104 ± 0.073
SKICLVCGDEASGCHYGVVTCGSCKVFFKRAVEEQHNYLCAGRNDCIIDKIRRKNCPACRLQKCLQAGMNLGARKS [G34E]	-0.013 ± 0.089
SKICLVCGDEASGCHYGVVTCGSCKVFFKRAVEFQHNYLCAGRNDCIIDKIRRKNCPACRLQKCLQAGMNLGARKS [G34F]	0.071 ± 0.085
